This note sets out measurements from the RNAGym collection of RNA variant scans (doi:10.1093/nar/gkz1192).

B1: CPEB3 Ribozyme (parent)
chain: UAACAGGGGGCCACAGCAGAAGCGUUCACGUCGCAGCCCCUGUCAGAUUCUGGUGAAUCUGCGAAUUCUGCUGUAUAUCUC

The variants in this data set derive from B1. Put plainly: self-cleavage, relative activity (ratio to wild type); higher = more cleavage; in vitro, sequencing. A digest of the protocol: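 Relative activity was defined as the cleaved/total read fraction for a variant divided by the same fraction for the unmutated ribozyme. CPEB3 self-cleaving ribozyme libraries were made by rounds of error-prone PCR, barcoded, and transcribed in vitro with T7 RNA polymerase for 5 hours at 37°C, and cleavage ran through transcription plus a 15 min DNase I step before EDTA. Illumina sequencing of template-switched reverse transcripts gave the reads, and DNA sequencing mapped the barcodes. Averages come from three batches, using variants with at least 5 reads.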
Consider UAACAGGGGGCCACAGCAGAAGCGUUCACGGCGCAGCCCCUGUCAGAUUCUGGUGAAUCAGCGAAUUCUGCUGUAUAUCUC [U31G U60A], for which the self-cleavage was 0.32. As for UAACAGGGGGCCACAGCAGAAGCGUUCACGGCGCAGCCCCUGUCAGAUUCUGGUGAAUCCGCGAAUUCUGCUGUAUAUCUC [U31G U60C], the figure is 0.31; as for UAACAGGGGGCCACAGCAGAAGCGUUCACGGCGCAGCCCCUGUCAGAUUCUGGUGAAUCUGCGGAUUCUGCUGUAUAUCUC [U31G A64G], 0.46. As for UAACAGGGGGCCACAGCAGAAGCGUUCACGGCGCAGCCCCUGUCGGAUUCUGGUGAAUCUGCGAAUUCUGCUGUAUAUCUC [U31G A45G], the figure is 0.37; as for UAACAGGGGGCCACAGCAGAAGCGUUCACGGCGCAGCCCCUGUCUGAUUCUGGUGAAUCUGCGAAUUCUGCUGUAUAUCUC [U31G A45U], 0.57. Under UAACAGGGGGCCACAGCAGAAGCGUUCACGGCGCAGCCCCUGUCCGAUUCUGGUGAAUCUGCGAAUUCUGCUGUAUAUCUC [U31G A45C] stands 0.33. Consider UAACAGGGGGCCACAGCAGAAGCGUUCACGGCGCAGCCCGUGUCAGAUUCUGGUGAAUCUGCGAAUUCUGCUGUAUAUCUC [U31G C40G], for which the self-cleavage worked out at 0.12.

Regarding UAACAGGGGGCCACAGCAGAAGCGUUCACGGCGCAGCCCCUGUCAGAUUCUGGUGAAUCUGCGAAUACUGCUGUAUAUCUC [U31G U67A], the self-cleavage was found to be 0.25.

With UAACAGGGGGCCACAGCAGAAGCGUUCACGGCGCAGCCCCUGUCAGAUUCUGGUGAAUCUGCGAAUCCUGCUGUAUAUCUC [U31G U67C], the self-cleavage is 0.3. On to UAACAGGGGGCCACAGCAGAAGCGUUCACGGCGUAGCCCCUGUCAGAUUCUGGUGAAUCUGCGAAUUCUGCUGUAUAUCUC [U31G C34U], for which the self-cleavage was 0.18. As for UAACAGGGGGCCACAGCAGAAGCGUUCACGGCGAAGCCCCUGUCAGAUUCUGGUGAAUCUGCGAAUUCUGCUGUAUAUCUC [U31G C34A], the figure is 0.14; as for UAACAGGGGGCCACAGCAGAAGCGUUCACGCCGCAGCCCCUGUCAGAUUCUGGUGAAUCUGCGAAUUCUGCUGCAUAUCUC [U31C U74C], 1.18. Consider UAACAGGGGGCCACAGCAGAAGCGUUCACGCCGCAGCCCCUGUCAGAUUCUGGUGAAUCUGCGAAUUCUGCUGGAUAUCUC [U31C U74G], for which the self-cleavage was determined as 1.23. As for UAACAGGGGGCCACAGCAGAAGCGUUCACGUAGCAGCCCCUGUCAGAUUCUGGUGAAUCUGCGAAUUCUGCUGUAUAUCUC [C32A], the figure is 0.29. Under UAACAGGGGGCCACAGCAGAAGCGUUCACGGCGCAGCCCCUGUCAGAUUCUGGUGGAUCUGCGAAUUCUGCUGUAUAUCUC [U31G A56G] stands 0.45. Under UAACAGGGGGCCACAGCAGAAGCGUUCACGGCGCUGCCCCUGUCAGAUUCUGGUGAAUCUGCGAAUUCUGCUGUAUAUCUC [U31G A35U] stands 0.36. UAACAGGGGGCCACAGCAGAAGCGUUCACGGCGCGGCCCCUGUCAGAUUCUGGUGAAUCUGCGAAUUCUGCUGUAUAUCUC [U31G A35G]: the self-cleavage worked out at 1.1.

Take UAACAGGGGGCCACAGCAGAAGCGUUCACGGCGCAGCCUCUGUCAGAUUCUGGUGAAUCUGCGAAUUCUGCUGUAUAUCUC [U31G C39U]: the self-cleavage was found to be 0.34. UAACAGGGGGCCACAGCAGAAGCGUUCACGGCGCAUCCCCUGUCAGAUUCUGGUGAAUCUGCGAAUUCUGCUGUAUAUCUC [U31G G36U]: the self-cleavage was 0.15.

As for UAACAGGGGGCCACAGCAGAAGCGUUCACGUAGCGGCCCCUGUCAGAUUCUGGUGAAUCUGCGAAUUCUGCUGUAUAUCUC [C32A A35G], the self-cleavage was found to be 0.87. Under UAACAGGGGGCCACAGCAGAAGCGUUCACGGCGCAGCCCCUGUCAGAUUCUGGUGAAUCUGCGAAUUCUGCUGGAUAUCUC [U31G U74G] stands 0.99; under UAACAGGGGGCCACAGCAGAAGCGUUCACGGCGCAGCCCCUGUCAGAUUCUGGUGAAUCUGCGAAUUCUGCUGCAUAUCUC [U31G U74C], 0.96.

On to UAACAGGGGGCCACAGCAGAAGCGUUCACGGCGCAGCCCCUGUCAGAUUCUGGUGAAUCUGCGAAUUCUGCUGAAUAUCUC [U31G U74A], for which the self-cleavage is 1.02.

Consider UAACAGGGGGCCACAGCAGAAGCGUUCACGGCGCAGCCCCUGUCAGAUCCUGGUGAAUCUGCGAAUUCUGCUGUAUAUCUC [U31G U49C], for which the self-cleavage is 0.26. As to UAACAGGGGGCCACAGCAGAAGCGUUCACGGCGCAGCCCCUGUCAGAUACUGGUGAAUCUGCGAAUUCUGCUGUAUAUCUC [U31G U49A], the self-cleavage stood at 0.34. Under UAACAGGGGGCCACAGCAGAAGCGUUCACGGCGCAGCCCCUGUCAGAUUCUGGUGAGUCUGCGAAUUCUGCUGUAUAUCUC [U31G A57G] stands 0.48.

As for UAACAGGGGGCCACAGCAGAAGCGUUCACGGCGCAGCCCCUGUCAGAUUCUGGUGAAUCUGCGAAUUCUGCUGUAUGUCUC [U31G A77G], the self-cleavage was 0.59. As for UAACAGGGGGCCACAGCAGAAGCGUUCACGGCGCAGCCCCUGUCAGAUUCUGGUGAAUCUGCGAAUUCUGCUGUAUAUCCC [U31G U80C], the self-cleavage worked out at 0.72. As for UAACAGGGGGCCACAGCAGAAGCGUUCACGGCGCAGCCCCUGUCAGAUUCUGGUGAAUCUGCGAAUUCUGCUGUAUAUCAC [U31G U80A], the figure is 0.59.

For the variant UAACAGGGGGCCACAGCAGAAGCGUUCACGGCGCAGCCCCUGUCAGAUUCUGGUGAAUCUGCGAAUUCUGCUGUAUAUAUC [U31G C79A], the self-cleavage came out at 0.56.

As to UAACAGGGGGCCACAGCAGAAGCGUUCACGGCGCAGCCCCUGUCAGAUUCUGGUGAAUCUGCGAAUUAUGCUGUAUAUCUC [U31G C68A], the self-cleavage was 0.31. Under UAACAGGGGGCCACAGCAGAAGCGUUCACGGCGCAGCCCCUGUCAGAUUCUGGUGAAUCUGGGAAUUCUGCUGUAUAUCUC [U31G C62G] stands 0.15; under UAACAGGGGGCCACAGCAGAAGCGUUCACGGCGCAGCCCCUGUCAGAUUCCGGUGAAUCUGCGAAUUCUGCUGUAUAUCUC [U31G U51C], 0.52; under UAACAGGGGGCCACAGCAGAAGCGUUCACGGCGCAGCCCCUGUCAGAUUCUGGUGAAUCUGCGAACUCUGCUGUAUAUCUC [U31G U66C], 0.37.
